Source: patent US20230203202A1 (DRAGONFLY THERAPEUTICS, published 2023)

What was measured:
[1] = biological target: T1, human 5T4 (SPR and epitope mapping, construct not stated) (human, UniProt Q13641 32-355, limits assumed); test: SPR, h5T4 binding; sample stressed in acetate pH 4, 7 days 40 °C
T1 construct: also called h5T4
T1 sequence (looked up): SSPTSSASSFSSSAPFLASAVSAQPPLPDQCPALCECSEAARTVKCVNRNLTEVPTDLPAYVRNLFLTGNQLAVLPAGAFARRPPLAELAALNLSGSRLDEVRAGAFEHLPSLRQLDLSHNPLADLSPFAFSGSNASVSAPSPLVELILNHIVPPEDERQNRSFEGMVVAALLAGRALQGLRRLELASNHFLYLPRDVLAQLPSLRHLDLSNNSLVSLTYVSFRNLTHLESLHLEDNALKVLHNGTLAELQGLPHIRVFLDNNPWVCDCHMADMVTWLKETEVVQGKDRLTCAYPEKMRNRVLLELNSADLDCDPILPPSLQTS

[2] = biological target: T1, human 5T4 (SPR and epitope mapping, …); test: SPR, Biacore 8K, 37 °C, TriNKET captured on anti-hFc chip, pH 7.4
Method: Briefly, SPR was performed using a Biacore 8K instrument at physiological temperature of 37° C. Briefly, human Fc specific antibodies were covalently immobilized at a density of about 8000-10000 resonance units (RU) on carboxy methyl dextran matrix of a CM5 biosensor chip to create an anti-hFc IgG chip. Samples were injected on the anti-hFc IgG chip at a flow rate of 10 μL/min for 60 seconds. Protein was serially diluted (300 nM-0.14 nM) in three-fold dilutions with running buffer and injected at a flow rate of 30 μl/min over the captured test articles. Association was monitored for 240-300 seconds, and dissociation was monitored for 300-900 seconds. Surfaces were regenerated between cycles with three pulses of 10 mM glycine-HCl (pH 1.7) injected for 20 seconds at 100 μL/min.

[3] = biological target: T2, human 5T4 on the cell surface (human, UniProt Q13641 32-420); test: flow cytometry on H1975 cells (22,000 5T4 per cell)
T2 construct: whole, on cells; also called h5T4; TPBG
T2 sequence (looked up): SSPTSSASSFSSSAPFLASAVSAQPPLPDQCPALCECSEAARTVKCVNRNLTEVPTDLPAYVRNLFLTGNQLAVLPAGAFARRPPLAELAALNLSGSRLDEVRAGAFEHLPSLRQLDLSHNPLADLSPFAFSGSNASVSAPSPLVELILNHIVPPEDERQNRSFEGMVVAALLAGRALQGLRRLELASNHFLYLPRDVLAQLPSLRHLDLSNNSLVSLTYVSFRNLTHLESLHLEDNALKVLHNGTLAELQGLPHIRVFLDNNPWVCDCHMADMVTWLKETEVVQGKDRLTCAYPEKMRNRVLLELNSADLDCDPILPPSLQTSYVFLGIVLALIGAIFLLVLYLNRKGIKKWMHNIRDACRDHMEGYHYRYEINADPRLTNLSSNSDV

[4] = biological target: T2, human 5T4 on the cell surface; test: flow cytometry on H292 cells (12,000 5T4 per cell)
[5] = biological target: T1, human 5T4 (SPR and epitope mapping, …); test: SPR, h5T4 binding; sample stressed in HST pH 6, 7 days 50 °C
[6] = biological target: T2, human 5T4 on the cell surface; test: cell binding assay on 5T4-expressing tumor cells (cell line not given)
[7] = biological target: T2, human 5T4 on the cell surface; test: flow cytometry on FaDu cells (22,000 5T4 per cell)
[8] = biological target: T2, human 5T4 on the cell surface; test: flow cytometry on KYSE-30 cells (61,000 5T4 per cell)
[9] = biological target: T2, human 5T4 on the cell surface; test: flow cytometry on KYSE-30 cells (61,000 5T4/cell), fold over background
Method: The KYSE-30 and H292 human cancer cell lines, derived from esophageal squamous cell carcinoma and non-small cell lung carcinoma, respectively, were used. […] After incubation, binding patterns of the TriNKET® and mAb to 5T4+ cells were detected using a fluorophore conjugated anti-human IgG secondary antibody. Cells were analyzed by flow cytometry and fold MFI over secondary-only controls reported.

[10] = biological target: T2, human 5T4 on the cell surface; test: cell-based or functional assay
[11] = biological target: T2, human 5T4 on the cell surface; test: flow cytometry on HCT116 cells (14,000 5T4 per cell)
[12] = biological target: T1, human 5T4 (SPR and epitope mapping, …); test: SPR, h5T4 binding; sample stressed in Tris pH 9, 7 days 40 °C; heterogeneous binding, approximate value
[13] = biological target: T3, human NKG2D on CD8+ T cells (human, UniProt P26718 1-216); test: cell-based or functional assay
T3 sequence (looked up): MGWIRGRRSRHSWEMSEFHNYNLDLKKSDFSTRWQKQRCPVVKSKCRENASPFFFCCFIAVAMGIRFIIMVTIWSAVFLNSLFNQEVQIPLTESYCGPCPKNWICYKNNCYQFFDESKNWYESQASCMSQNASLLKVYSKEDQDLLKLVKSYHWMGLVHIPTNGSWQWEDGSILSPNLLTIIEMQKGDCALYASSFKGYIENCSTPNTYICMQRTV

[14] = biological target: T1, human 5T4 (SPR and epitope mapping, …); test: SPR, h5T4 binding; sample stressed in Tris pH 9, 7 days 40 °C
[15] = biological target: T2, human 5T4 on the cell surface; test: flow cytometry on Detroit 562 cells (21,000 5T4 per cell)

B1: AB1310/AB1783-TriNKET® (bispecific antibody, human IgG1, kappa)
chain: DIQLTQSPSSLSASVGDRVTITCRASQSVTTSNYNYMHWFQQKPGKAPKLLIKFASNLESGVPSRFSGSGSGTDFTLTISSLQPEDFATYYCQHSWEIPWTFGCGTKVEIKGGGGSGGGGSGGGGSGGGGSEVQLVESGGGLVKPGGSLRLSCAASRFTFSDFGMHWVRQAPGKCLEWVSYISSGSSTIYYADSVKGRFTISRDNAKNSLYLQMNSLRAEDTAVYYCASSQSYYRGTLDYWGQGTTVTVSSASDKTHTCPPCPAPELLGGPSVFLFPPKPKDTLMISRTPEVTCVVVDVSHEDPEVKFNWYVDGVEVHNAKTKPREEQYNSTYRVVSVLTVLHQDWLNGKEYKCKVSNKALPAPIEKTISKAKGQPREPRVYTLPPCRDELTKNQVSLTCLVKGFYPSDIAVEWESNGQPENNYKTTPPVLVSDGSFTLYSKLTVDKSRWQQGNVFSCSVMHEALHNHYTQKSLSLSPG
heavy: EVQLVESGGGLVKPGGSLRLSCAASGFTFSSYSMNWVRQAPGKGLEWVSSISSSSSYIYYADSVKGRFTISRDNAKNSLYLQMNSLRAEDTAVYYCARGAPIGAAAGWFDPWGQGTLVTVSSASTKGPSVFPLAPSSKSTSGGTAALGCLVKDYFPEPVTVSWNSGALTSGVHTFPAVLQSSGLYSLSSVVTVPSSSLGTQTYICNVNHKPSNTKVDKKVEPKSCDKTHTCPPCPAPELLGGPSVFLFPPKPKDTLMISRTPEVTCVVVDVSHEDPEVKFNWYVDGVEVHNAKTKPREEQYNSTYRVVSVLTVLHQDWLNGKEYKCKVSNKALPAPIEKTISKAKGQPREPQVCTLPPSRDELTENQVSLTCLVKGFYPSDIAVEWESNGQPENNYKTTPPVLDSDGSFFLYSWLTVDKSRWQQGNVFSCSVMHEALHNHYTQKSLSLSPG
light: DIQMTQSPSSVSASVGDRVTITCRASQGISSWLAWYQQKPGKAPKLLIYAASSLQSGVPSRFSGSGSGTDFTLTISSLQPEDFATYYCQQGVSFPRTFGGGTKVEIKRTVAAPSVFIFPPSDEQLKSGTASVVCLLNNFYPREAKVQWKVDNALQSGNSQESVTEQDSKDSTYSLSSTLTLSKADYEKHKVYACEVTHQGLSSPVTKSFNRGEC
notes: also called AB1310-TriNKET®; AB1783 10F10 F3′ LH H(T62S) CHO opt
Q: How did the Kd [1] turn out when B1 was run?
A: The Kd was 7.6 nM.

Q: And the koff [1]?
A: Its koff is 0.00091 s⁻¹.

Q: And the kon [1]?
A: The kon was 120000 M⁻¹ s⁻¹.

Q: What about the Kd [2] of the same binder?
A: The Kd was 6.1 nM.

Q: And the koff [2]?
A: The koff was 0.00077 s⁻¹.

Q: And the kon [2]?
A: The kon was 130000 M⁻¹ s⁻¹.

Q: And the EC50 [3]?
A: Its EC50 is 1.9 nM.

Q: And the EC50 [4]?
A: The EC50 was 1.5 nM.

Q: And the Kd [5]?
A: Its Kd is 7.6 nM.

Q: And the koff [5]?
A: Its koff is 0.00088 s⁻¹.

Q: And the kon [5]?
A: Its kon is 110000 M⁻¹ s⁻¹.

Q: And the EC50 [6]?
A: Its EC50 is 3.42 nM.

Q: And the “Max Fold Over Background (FOB)” value [6]?
A: The value was 82.8 fold over background.

Q: What about the EC50 [7] of the same binder?
A: Its EC50 is 7.1 nM.

Q: And the EC50 [8]?
A: Its EC50 is 2.5 nM.

Q: What about the “EC50 (read off the curve)” value [9] of the same binder?
A: Its value is roughly 2 nM.

Q: What about the “ADCP of KYSE-30 cells by M0 macrophages, EC50” value [10] of the same binder?
A: The value was 0.089 nM.

Q: And the “ADCP of NCI-H292 cells by M0 macrophages, EC50” value [10]?
A: The value was 0.15 nM.

Q: What about the EC50 [11] of the same binder?
A: The EC50 was 2.1 nM.

Q: And the Kd [12]?
A: Its Kd is roughly 15.1 nM.

Q: What about the “CD8+ T-cell lysis of BT-474 cells (Incucyte, 72 h), EC50” value [13] of the same binder?
A: Its value is 0.66 nM.

Q: What about the “CD8+ T-cell lysis of FaDu cells (Incucyte, 72 h), EC50” value [13] of the same binder?
A: The value was 0.59 nM.

Q: And the koff [14]?
A: Its koff is 0.0016 s⁻¹.

Q: And the kon [14]?
A: The kon was 110000 M⁻¹ s⁻¹.

Q: What about the EC50 [15] of the same binder?
A: Its EC50 is 2.7 nM.
